For experiment [1], the target named is T1, hAng2-biotin (R&D, Catalog No. BT623B/CF) (human, UniProt O15123 68-496, limits assumed, biotinylated).
T1 construct: also called Ang2-Bio (R&D, Catalog No. BT623B/CF); Recombinant Biotinylated hAngiopoietin-2 protein (R&D)
T1 sequence (looked up): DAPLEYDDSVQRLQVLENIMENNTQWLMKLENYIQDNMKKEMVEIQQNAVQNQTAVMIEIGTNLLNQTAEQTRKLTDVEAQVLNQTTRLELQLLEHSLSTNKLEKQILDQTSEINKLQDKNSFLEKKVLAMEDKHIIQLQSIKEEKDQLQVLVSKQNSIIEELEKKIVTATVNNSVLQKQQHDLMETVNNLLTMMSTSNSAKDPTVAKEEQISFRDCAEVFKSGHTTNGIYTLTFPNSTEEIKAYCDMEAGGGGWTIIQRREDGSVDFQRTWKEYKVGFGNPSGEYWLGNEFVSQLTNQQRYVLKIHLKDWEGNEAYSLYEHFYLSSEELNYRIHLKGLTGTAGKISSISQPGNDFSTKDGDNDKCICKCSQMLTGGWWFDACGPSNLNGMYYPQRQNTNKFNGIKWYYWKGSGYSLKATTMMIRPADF
As to the kind of experiment: blocking ELISA: hTie2 coated, binding of biotinylated hAng2 blocked; unit from the axis. The method, then:
(§1) The antigen-antibody mixture obtained as described above was incubated in the microplate for 90 min and washed three times with PBS, and the supernatant was discarded. 100 μL of Avidin-HRP (Invitrogen) diluted in a 1:10000 ratio was added to each well, incubated at room temperature for 30 min, and washed six times with PBS. A TMB chromogenic solution (solarbio) was added to the plate at 100 μL/well for color development for 1 min, and the reaction was stopped by adding a stop solution (Solarbio) at 100 μL/well.

Experiment [2] deals with T2, hAng2-Fc (Beijing Sino Biological, Catalog No. 10691-H02H) (human, UniProt O15123 19-496).
T2 construct: Bought fusion protein; also called human Ang2-hFc; recombinant hAng2-Fc protein; not shown: human Fc of the bought fusion protein
T2 sequence (looked up): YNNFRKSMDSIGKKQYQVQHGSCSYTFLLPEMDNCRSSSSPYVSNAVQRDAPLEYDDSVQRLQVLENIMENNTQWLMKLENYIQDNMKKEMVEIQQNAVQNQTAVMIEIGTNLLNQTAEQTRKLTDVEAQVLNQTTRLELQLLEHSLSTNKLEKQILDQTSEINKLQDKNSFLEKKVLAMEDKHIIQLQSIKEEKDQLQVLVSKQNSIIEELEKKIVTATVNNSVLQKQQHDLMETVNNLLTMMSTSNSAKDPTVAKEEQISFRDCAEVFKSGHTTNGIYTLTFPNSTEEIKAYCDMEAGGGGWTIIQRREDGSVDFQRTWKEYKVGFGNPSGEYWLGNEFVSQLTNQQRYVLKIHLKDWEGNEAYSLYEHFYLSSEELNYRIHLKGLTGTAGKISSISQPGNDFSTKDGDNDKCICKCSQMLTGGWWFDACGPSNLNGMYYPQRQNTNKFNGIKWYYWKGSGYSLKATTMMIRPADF
Nature of the experiment: flow cytometry blocking: binding of hAng2-Fc to Tie2 on 293-Tie2 cells blocked, Mean-PE-A; unit from the axis. The method, then:
(§2) The cells were centrifuged at 300 g for 5 min. The supernatant was discarded. Then the cells were resuspended in an antigen-antibody mixture. The mixture was incubated on ice for 30 min. PBS was added at 100 μL/well. After centrifugation at 300 g for 5 min, the mixture was washed once with PBS. 100 μL of goat anti-human IgG-PE (SouthernBiotech) diluted in a 1:200 ratio was added to each well. After a 20-min ice bath, PBS was added at 100 μL/well. The mixture was centrifuged at 300 g for 5 min, prior to one wash with PBS. The cells were resuspended with 100 μL of PBS. The cell fluorescence signal values were measured by a flow cytometer (BD Biosciences). According to MFI, the concentration-dependent curve was fitted with GraphPad.
A general note: Flow cytometry measures light scatter and fluorescence of single cells or particles in a stream.

Experiment [3] concerns the target T3, human VEGF165 (R&D) (human, UniProt P15692-4 27-191).
T3 construct: Antigen of the ForteBio assay
Nature of the experiment: BLI (ForteBio), bivalent binding.

For experiment [4], the target named is T4, biotin-labeled VEGF A165 (ACRO, Catalog No. VE5-H8210) (human, UniProt P15692-4 27-191, biotin-labeled).
T4 construct: also called hVEGF A
As to the kind of experiment: blocking ELISA: biotin VEGF A165 captured on streptavidin, binding of VEGFR-Fc blocked; value printed as EC50 in the table under the curves, unit from the axis. Here is the method:
(§3) SA (Thermo, Catalog No. 21125) was diluted to 1 μg/mL, and 100 μL/well of SA was plated in a microplate at 4° C. overnight. The plate was washed 3 times with PBST and blocked with 3% BSA for 1.5 h. […] The plate was washed 6 times with PBST, the color development was performed with TMB for 5 min, and OD450 nm was read after stopping.
A general note: ELISA stands for enzyme-linked immunosorbent assay.

The target of experiment [5] is T2, hAng2-Fc (Beijing Sino Biological, …). As to the kind of experiment: flow cytometry blocking: binding of hAng2-Fc to Tie2 on 293-Tie2 cells, Mean PE-A; fit value printed for the flat curve of the negative control, unit from the axis. Here is the method: as §2
Experiment [6] concerns the target T1, hAng2-biotin (R&D, Catalog No. …). Nature of the experiment: blocking ELISA: hTie2 coated, binding of biotinylated hAng2; fit value printed for the flat curve of the negative control, unit from the axis. The method, then:
as §1

Experiment [7] has as its target T4, biotin-labeled VEGF A165 (ACRO, Catalog …). Nature of the experiment: blocking ELISA: biotin VEGF A165 captured on streptavidin, binding of VEGFR-Fc; fit value printed for the flat curve of the negative control, unit from the axis. Here is the method: as §3
For experiment [8], the target named is T1, hAng2-biotin (R&D, Catalog No. …). As to the kind of experiment: blocking ELISA: hTie2 coated, binding of biotinylated hAng2; fit value printed for the flat curve of the negative control, unit from the axis. The method, then:
as §1
This is another data set of the same source.

In experiment [9] the target is T2, hAng2-Fc (Beijing Sino Biological, …). Nature of the experiment: flow cytometry blocking: binding of hAng2-Fc to Tie2 on 293-Tie2 cells, Mean-PE-A; fit value printed for the flat curve of the negative control, unit from the axis. Here is the method:
as §2

Experiment [10] deals with T5, human Ang2 (human, UniProt O15123 19-496, limits assumed).
T5 construct: Antigen of the ForteBio assay; also called human Ang2 (Beijing Sino Biological)
T5 sequence (looked up): T2 sequence (looked up)
As to the kind of experiment: BLI (ForteBio), bivalent binding. A general note: BLI is a label-free optical method that tracks binding on a fibre tip over time.

Experiment [11] addresses T5, human Ang2. As to the kind of experiment: BLI (ForteBio), bivalent binding; * dissociation constant exceeding ForteBio detection limits.
Experiment [12] has as its target T5, human Ang2. Nature of the experiment: BLI (ForteBio), monovalent binding.
In experiment [13] the target is T3, human VEGF165 (R&D). Nature of the experiment: BLI (ForteBio), monovalent binding.
The target of experiment [14] is T2, hAng2-Fc (Beijing Sino Biological, …). Nature of the experiment: flow cytometry blocking: binding of hAng2-Fc to Tie2 on 293-Tie2 cells blocked, Mean PE-A; unit from the axis. Here is the method:
as §2

From patent US20260274933A1 (Innovent, published 2026) come the findings set out here.

Residue numbers refer to the chain shown, from its start. Where only a bound is given, the exact number is not on record here.

T3 sequence (P15692 other isoform, or with tags, fused parts or gaps limits assumed): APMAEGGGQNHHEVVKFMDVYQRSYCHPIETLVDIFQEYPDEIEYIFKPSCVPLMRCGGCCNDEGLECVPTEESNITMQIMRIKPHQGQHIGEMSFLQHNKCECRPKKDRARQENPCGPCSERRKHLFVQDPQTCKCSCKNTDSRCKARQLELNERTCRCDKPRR
T4 sequence (P15692 other isoform, or with tags, fused parts or gaps limits assumed): as above

B1: IEX04-012 (bispecific antibody)
chain: DIQLTQSPSSLSASVGDRVTITCSASQDISNYLNWYQQKPGKAPKVLIYFTSSLHSGVPSRFSGSGSGTDFTLTISSLQPEDFATYYCQQYSTVPWTFGCGTKVEIKGGGGSGGGGSGGGGSGGGGSEVQLVESGGGLVQPGGSLRLSCAASGYDFTHYGMNWVRQAPGKCLEWVGWINTYTGEPTYAADFKRRFTFSLDTSKSTAYLQMNSLRAEDTAVYYCAKYPYYYGTSHWYFDVWGQGTLVTVSSGGGGSGGGGSGGGGSEVQLLESGGGLVQPGGSLRLSCAASGFALDYYAIGWFRQAPGKGLEGVSCISSGEGSTYYADSVKGRFTISRDNSKNTVYLQMNSLRAEDTAVYYCATDSRGDDVACEGLRRNEYDYWGQGTLVTVSS
notes: also called Ranibizumab scFv containing disulfide bond mutations + linker + LA24C11.10; recombinant anti-VEGF A/anti-Ang2 bispecific antibody
The term IC50 denotes the concentration that gives 50% inhibition. A high value points to a need for much substance. Consider B1, for which the figures for the half-maximal inhibitory concentration (IC50) in experiment [1] and in experiment [2] were 7100 pM and 686 pM, respectively.

B2: LA42F8.5 (VHH)
VHH: EVQLLESGGGLVQPGGSLRLSCAASGFNLDYYPIGWFRQAPGKGLEGVSCISSVGSTNYADSVKGRFTISRDNSKNTVYLQMNSLRAEDTAVYYCAADPLCSALILPPPFLSWGQGTQVTVSS
notes: also called humanized LA42F8
The koff is the rate constant with which the complex falls apart. Low readings indicate a long-lived complex, high ones a short-lived complex. A word on the kon: it is the rate constant with which the complex forms. Low readings indicate slower complex formation, high ones faster complex formation. In the experiment with human VEGF165 (R&D) [3], B2 registered a Kd of 200 pM, an off-rate (koff) of 0.000213 s⁻¹ and an on-rate constant (kon) of 1.06e+06 M⁻¹ s⁻¹.

B3: BI-anti-VEGF (VHH)
VHH: DVQLVESGGGLVQPGGSLRLSCAASGRTFSSYSMGWFRQAPGKEREFVVAISKGGYKYDAVSLEGRFTISRDNAKNTVYLQINSLRPEDTAVYYCASSRAYGSSRLRLADTYEYWGQGTLVTVSS
notes: also called Positive control antibody BI-anti-VEGF
What is called EC50 is the concentration at which the effect is half-maximal. Read a high EC50 as weaker potency. As for B3, in experiment [4], the response was half-maximal at 0.034 µg/mL (EC50).

B4: IgG (antibody, V domains shown)
VH: EVRLLESGGGLVQPGGSLRLSCAASGFTFSNYAMGWVRQAPGKGLEWVSAISGSGGSTYYADSVKGRFTTSRDDSKNALYLQMNSLRAEDTAVYYCARGGPGWYAADVWGQGTTVTVSS
VL: DIQMTQSPSSLSASVGDRVTITCRASQSISSYLNWYQQKPGKAPKLLIYAASSLQSGVPSRFSGSGSGTDFTLTISSLQPEDFATYYCQQADLPAFAFGGGTKVEIKR
notes: also called Negative control IgG
As for B4, the IC50 is roughly 19 pM in experiment [5], roughly 6790 pM in experiment [6], roughly 596 pM in [8] and roughly 10100 pM in [9]. Besides, in experiment [7], the half-maximal effective concentration (EC50) stood at 0.00208 µg/mL.

B5: LA24C11 (Ang2 VHH) (VHH)
VHH: QVQLVESGGGLVQPGGSLRLSCAASGFALDYYAIGWFRQAPGKEREGVSCISSGDGSTYYADSVKGRFTISRDNAKNTVYLQMNSLKPEDTAVYYCATDSRGDDVACEGLRRNEYDYWGQGTQVTVSS
notes: Alpaca anti-Ang2 VHH
As to B5, in the experiment with human Ang2 [10], the Kd is 867 pM and the kon came to 231000 M⁻¹ s⁻¹. In the experiment with human Ang2 [11], this molecule displayed a koff of no more than 0.0002 s⁻¹. In the experiment with human Ang2 [12], this molecule had a Kd of 2180 pM, a koff of 0.00166 s⁻¹ and a kon of 761000 M⁻¹ s⁻¹.

B6: LA46E11 (VEGFA VHH) (VHH)
VHH: QVQLEESGGGLVQPGGSLRLSCVASGSIFSINAMGWHRQAPGSQRELVATMIGGSSTFYADSVNGRFTISRDNAKNTVYLQMNSLKLEDTAVYYCYADVTGRSGTSIWNKRDDYWGQGTLVTVSS
notes: Alpaca anti-VEGF A VHH; also called LA46E11 supernatant
B6 registered an EC50 in [4] of 0.344 µg/mL. In the experiment with human VEGF165 (R&D) [3], this molecule gave a Kd of 1110 pM, a dissociation rate constant (koff) of 0.0002 s⁻¹ and an association rate constant (kon) of 179000 M⁻¹ s⁻¹. Also, in the experiment with human VEGF165 (R&D) [13], the Kd came to 7740 pM, the off-rate (koff) is 0.00142 s⁻¹ and the kon amounted to 184000 M⁻¹ s⁻¹.

B7: LA46E11.8 (VEGFA VHH) (VHH)
VHH: B6 VHH with Q1E, E5L, V23A, S43K, D61E, N64Q, A74S, K86R, L87A, L120Q
notes: Humanized anti-VEGF A VHH; also called humanized LA46E11
In the case of B7, in the experiment with human VEGF165 (R&D) [3], the Kd came to 788 pM, the koff turned out to be 0.000332 s⁻¹ and the kon was 421000 M⁻¹ s⁻¹.

B8: IEX04-008 (bispecific antibody)
chain: EVQLLESGGGLVQPGGSLRLSCAASGSIFSINAMGWHRQAPGKQRELVATMIGGSSTFYAESVQGRFTISRDNSKNTVYLQMNSLRAEDTAVYYCYADVTGRSGTSIWNKRDDYWGQGTQVTVSSGGGGSGGGGSEVQLLESGGGLVQPGGSLRLSCAASGSIFSINAMGWHRQAPGKQRELVATMIGGSSTFYAESVQGRFTISRDNSKNTVYLQMNSLRAEDTAVYYCYADVTGRSGTSIWNKRDDYWGQGTQVTVSSGGGGSGGGGSEVQLLESGGGLVQPGGSLRLSCAASGFALDYYAIGWFRQAPGKGLEGVSCISSGEGSTYYADSVKGRFTISRDNSKNTVYLQMNSLRAEDTAVYYCATDSRGDDVACEGLRRNEYDYWGQGTLVTVSS
notes: also called LA46E11.8 (VHH) + linker + LA46E11.8 (VHH) + LA24C11.10
As for B8, the IC50 in [1] worked out at 13500 pM; in experiment [14], 554 pM.
